Target: T1, Hemagglutinin (HA) of human influenza A virus A2/Aichi/2/68 (H3N2サブタイプ) (human influenza A virus A2/Aichi/2/68 …, UniProt P03437 17-566)
T1 construct: whole, on cells; also called A/Aichi/2/68; A2/Aichi/2/68

B1: モノクローナル抗体C179 (monoclonal antibody C179) (antibody, V domains shown)
VH: EVKLVESGGGLVQPGGSLRLSCGTSGFTLTDDYMTWVRQPPGKALEWLGFIRDRANGYTTEYSASVKGRFTISRDNSQSIVYLQMNTLRVEDSATYYCARPKGYFPYAMDYWGQGT
VL: DIQMTQSPASQSASLGESVTITCLASQTIGTWLAWYQQKPGKSPQLLIYAATSLADGVPSRFSGSGSGTKFSFKISSLQAEDFVSYYCQQLYSTPWTF
notes: also called antibody of Hybridoma C179 (FERM BP-4517)
- binding result: no binding
